Laboratory results taken from paper doi:10.1101/2023.09.15.558033.

Experiments:
[1] = biological target: Hsp60 C-terminal deletion mutant Δ522 (terminal 26 residues removed) (human); assay: cryo-EM structure
[2] = biological target: Hsp60 C-terminal deletion mutant Δ532 (terminal 16 residues removed) (human)

Molecule | stoichiometry N [1] | refolding of denatured hMDH (hMDH activity), loss against wild-type Hsp60 [2] [%]
Hsp60 C-terminal deletion mutant Δ522 (terminal 26 residues removed) (domain or fragment) | 14 | –
human malate dehydrogenase (hMDH), acid-denatured (enzyme) AKVAVLGASGGIGQPLSLLLKNSPLVSRLTLYDIAHTPGVAADLSHIETKAAVKGYLGPEQLPDCLKGCDVVVIPAGVPRKPGMTRDDLFNTNATIVATLTAACAQHCPEAMICVIANPVNSTIPITAEVFKKHGVYNPNKIFGVTTLDIVRANTFVAELKGLDPARVNVPVIGGHAGKTIIPLISQCTPKVDFPQDQLTALTGRIQEAGTEVVKAKAGAGSATLSMAYAGARFVFSLVDAMNGKEGVVECSFVKSQETECTYFSTPLLLGKKGIEKNLGIGKVSSFEEKMISDAIPELKASIKKGEDFVKTLK | – | 27
